Data from publication PMC4622731 (mAbs, 2015).

Assays:
[1] = target: human IL-1α (human) (UniProt P01583)
[2] = target: cynomolgus IL-1β (Macaca fascicularis) (UniProt P79182)
[3] = target: cynomolgus IL-1α (Macaca fascicularis) (UniProt P79340)
[4] = target: human IL-1β (human) (UniProt P01584)
[5] = target: biotinylated human IL-1α (Homo sapiens) (UniProt P01583); experiment: ELISA; mAb or DVD-Ig (2 μg/mL) captured by anti-human Fc antibody coated on the plate; biotinylated human IL-1α or IL-1β titrated 1000 ng/mL to 0.597 pg/mL, 1 hour at 25°C; peroxidase-labeled streptavidin
[6] = target: biotinylated human IL-1β (Homo sapiens) (UniProt P01584); experiment: as above
[7] = target: human IL-1α (human) (UniProt P01583); experiment: SPR; Biacore 3000; mAb or DVD-Ig captured by goat anti-human IgG Fc on a CM5 chip; IL-1 10-200 nM flowed at 25 μL/min; HBS-EP (10 mM HEPES pH 7.4, 150 mM NaCl, 3 mM EDTA, 0.005% P20), 25°C; 1:1 Langmuir global fit, KD = koff/kon
[8] = target: cynomolgus IL-1β (Macaca fascicularis) (UniProt P79182); experiment: as above
[9] = target: cynomolgus IL-1α (Macaca fascicularis) (UniProt P79340); experiment: as above
[10] = target: human IL-1β (human) (UniProt P01584); experiment: as above
[11] = target: human IL-1α (human) (UniProt P01583); remark: listed apart in the source
[12] = target: cynomolgus IL-1β (Macaca fascicularis) (UniProt P79182); remark: listed apart in the source
[13] = target: cynomolgus IL-1α (Macaca fascicularis) (UniProt P79340); remark: listed apart in the source
[14] = target: human IL-1β (human) (UniProt P01584); remark: listed apart in the source
[15] = target: T1, human IL-1β (Homo sapiens, UniProt P01584); experiment: SPR; Biacore 3000; mAb or DVD-Ig captured by goat anti-human IgG Fc on a CM5 chip; IL-1 10-200 nM flowed at 25 μL/min; HBS-EP (10 mM HEPES pH 7.4, 150 mM NaCl, 3 mM EDTA, 0.005% P20), 25°C; 1:1 Langmuir global fit, KD = koff/kon; conditions: both partners purified
T1 construct: interleukin-1 beta, human, recombinant; also called recombinant human IL-1β; source: recombinant, AbbVie
T1 sequence (P01584 whole entry): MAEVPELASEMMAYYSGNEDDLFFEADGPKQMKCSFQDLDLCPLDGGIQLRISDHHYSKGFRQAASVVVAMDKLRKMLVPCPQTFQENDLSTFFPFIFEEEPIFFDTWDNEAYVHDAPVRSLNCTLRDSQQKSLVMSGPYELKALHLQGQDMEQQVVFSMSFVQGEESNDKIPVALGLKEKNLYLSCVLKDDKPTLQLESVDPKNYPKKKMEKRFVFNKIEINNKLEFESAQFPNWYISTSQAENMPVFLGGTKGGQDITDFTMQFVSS

[16] = target: T1, human IL-1β; experiment: cell-based or functional assay

Chain of cynomolgus IL-1β (Macaca fascicularis) (P79182 whole entry): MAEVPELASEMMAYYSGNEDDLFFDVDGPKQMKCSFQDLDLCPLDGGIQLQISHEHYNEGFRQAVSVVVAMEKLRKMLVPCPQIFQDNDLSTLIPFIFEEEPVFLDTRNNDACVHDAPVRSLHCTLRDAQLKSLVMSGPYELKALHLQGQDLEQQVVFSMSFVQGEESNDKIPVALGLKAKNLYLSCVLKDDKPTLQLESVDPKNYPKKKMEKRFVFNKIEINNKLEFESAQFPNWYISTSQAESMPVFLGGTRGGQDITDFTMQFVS
Chain of human IL-1α (human) (P01583 whole entry): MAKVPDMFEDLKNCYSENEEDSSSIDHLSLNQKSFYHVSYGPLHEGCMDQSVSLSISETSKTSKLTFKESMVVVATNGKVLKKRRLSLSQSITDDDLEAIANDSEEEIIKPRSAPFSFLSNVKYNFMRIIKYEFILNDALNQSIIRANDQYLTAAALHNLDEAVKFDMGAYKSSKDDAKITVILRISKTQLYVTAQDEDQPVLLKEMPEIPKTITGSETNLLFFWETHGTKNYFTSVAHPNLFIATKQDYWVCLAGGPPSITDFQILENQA
Chain of cynomolgus IL-1α (Macaca fascicularis) (P79340 whole entry): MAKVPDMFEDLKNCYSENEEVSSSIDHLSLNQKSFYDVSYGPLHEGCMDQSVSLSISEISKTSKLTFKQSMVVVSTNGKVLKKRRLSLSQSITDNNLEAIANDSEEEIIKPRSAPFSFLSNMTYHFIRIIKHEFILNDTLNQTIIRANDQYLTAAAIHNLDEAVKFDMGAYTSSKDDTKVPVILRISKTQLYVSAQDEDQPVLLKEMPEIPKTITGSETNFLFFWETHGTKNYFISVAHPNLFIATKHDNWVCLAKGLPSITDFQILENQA
Chain of human IL-1β (human) (P01584 whole entry): as the sequence (P01584 whole entry) above

ABT-981 (bispecific antibody)
ED50, Average: dose of ABT-981 inhibiting mouse IL-6 induced by 30 ng human IL-1α in C57/BL6 mice [1]: 0.005 mg/kg
ED50, Expt #1: dose of ABT-981 inhibiting mouse IL-6 induced by 30 ng human IL-1α in C57/BL6 mice [1]: 0.007 mg/kg
ED50, Expt #2: dose of ABT-981 inhibiting mouse IL-6 induced by 30 ng human IL-1α in C57/BL6 mice [1]: 0.002 mg/kg
ED80, Average: dose of ABT-981 inhibiting mouse IL-6 induced by 30 ng human IL-1α in C57/BL6 mice [1]: 0.104 mg/kg
ED80, Expt #1: dose of ABT-981 inhibiting mouse IL-6 induced by 30 ng human IL-1α in C57/BL6 mice [1]: 0.17 mg/kg
ED80, Expt #2: dose of ABT-981 inhibiting mouse IL-6 induced by 30 ng human IL-1α in C57/BL6 mice [1]: 0.04 mg/kg
ED50, Average: dose of ABT-981 inhibiting mouse IL-6 induced by 30 ng cynomolgus IL-1β in C57/BL6 mice [2]: 0.004 mg/kg
ED50, Expt #1: dose of ABT-981 inhibiting mouse IL-6 induced by 30 ng cynomolgus IL-1β in C57/BL6 mice [2]: 0.002 mg/kg
ED50, Expt #2: dose of ABT-981 inhibiting mouse IL-6 induced by 30 ng cynomolgus IL-1β in C57/BL6 mice [2]: 0.006 mg/kg
ED80, Average: dose of ABT-981 inhibiting mouse IL-6 induced by 30 ng cynomolgus IL-1β in C57/BL6 mice [2]: 0.094 mg/kg
ED80, Expt #1: dose of ABT-981 inhibiting mouse IL-6 induced by 30 ng cynomolgus IL-1β in C57/BL6 mice [2]: 0.098 mg/kg
ED80, Expt #2: dose of ABT-981 inhibiting mouse IL-6 induced by 30 ng cynomolgus IL-1β in C57/BL6 mice [2]: 0.11 mg/kg
ED50, Average: dose of ABT-981 inhibiting mouse IL-6 induced by 30 ng cynomolgus IL-1α in C57/BL6 mice [3]: 6.5 mg/kg
ED50, Expt #1: dose of ABT-981 inhibiting mouse IL-6 induced by 30 ng cynomolgus IL-1α in C57/BL6 mice [3]: 5.2 mg/kg
ED50, Expt #2: dose of ABT-981 inhibiting mouse IL-6 induced by 30 ng cynomolgus IL-1α in C57/BL6 mice [3]: 7.7 mg/kg
ED80, Average: dose of ABT-981 inhibiting mouse IL-6 induced by 30 ng cynomolgus IL-1α in C57/BL6 mice [3]: 18.2 mg/kg
ED80, Expt #1: dose of ABT-981 inhibiting mouse IL-6 induced by 30 ng cynomolgus IL-1α in C57/BL6 mice [3]: 16.1 mg/kg
ED80, Expt #2: dose of ABT-981 inhibiting mouse IL-6 induced by 30 ng cynomolgus IL-1α in C57/BL6 mice [3]: 20.2 mg/kg
ED50, Average: dose of ABT-981 inhibiting mouse IL-6 induced by 30 ng human IL-1β in C57/BL6 mice [4]: 0.016 mg/kg
ED50, Expt #1: dose of ABT-981 inhibiting mouse IL-6 induced by 30 ng human IL-1β in C57/BL6 mice [4]: 0.02 mg/kg
ED50, Expt #2: dose of ABT-981 inhibiting mouse IL-6 induced by 30 ng human IL-1β in C57/BL6 mice [4]: 0.012 mg/kg
ED80, Average: dose of ABT-981 inhibiting mouse IL-6 induced by 30 ng human IL-1β in C57/BL6 mice [4]: 0.28 mg/kg
ED80, Expt #1: dose of ABT-981 inhibiting mouse IL-6 induced by 30 ng human IL-1β in C57/BL6 mice [4]: 0.27 mg/kg
ED80, Expt #2: dose of ABT-981 inhibiting mouse IL-6 induced by 30 ng human IL-1β in C57/BL6 mice [4]: 0.32 mg/kg
EC50 [5]: 0.0064 nM
EC50 [6]: 0.0075 nM
Kd [7]: 0.0076 nM
Kd [8]: 0.0153 nM
Kd [9]: 0.411 nM
Kd [10]: 0.021 nM
Neutralization potency IC50, MRC-5 cell bioassay: IL-8 release on 3 pM human IL-1α [11]: 16.2 pM
Neutralization potency IC50, MRC-5 cell bioassay: IL-8 release on 3 pM cynomolgus IL-1β [12]: 8.4 pM
Neutralization potency IC50, MRC-5 cell bioassay: IL-8 release on 3 pM cynomolgus IL-1α [13]: 955 pM
Neutralization potency IC50, MRC-5 cell bioassay: IL-8 release on 3 pM human IL-1β [14]: 16 pM

B1: humanized SK48-E26 mAb (antibody, V domains shown)
VH: EVQLVESGGGVVQPGRSLRLSCSSSGFIFSSYDMSWVRQAPGKGLEWVAYISSGGGGTYYPDTVKGRFTISRDNSKNTLFLQMDSLRPEDTGVYFCARGGVTKGYFDVWGQGTPVTVSS
VL: DIQMTQSPSSLSASVGDRVTITCRASGNIHNYLTWYQQTPGKAPKLLIYNAKTLADGVPSRFSGSGSGTDYTFTISSLQPEDIATYYCQHFWSIPYTFGQGTKLQIT
Kd [15]: 0.242 nM
Neutralization potency IC50, MRC-5 cell bioassay: IL-8 release on 3 pM human IL-1β [16]: 400 pM
